From patent US20220306734A1 (H LUNDBECK A S, published 2022)

Experiments:
[1] = molecular target: human mGluR5 extracellular domain (human-mGluR5-ECD) (human) (UniProt P41594); assay: HTRF, soluble ECD
[2] = molecular target: human mGluR5 extracellular domain (human-mGluR5-ECD) (human) (UniProt P41594); assay: HTRF, soluble ECD; remark: listed apart in the source
[3] = molecular target: full-length (FL) human mGluR5 on BA/F3-mGluR5 clone 10C9 cells (human) (UniProt P41594); assay: cell-based or functional assay
[4] = molecular target: full-length (FL) human mGluR5 on BA/F3-mGluR5 clone 10C9 cells (human) (UniProt P41594); assay: flow cytometry, BA/F3-mGluR5 10C9 cells, 10 ug/ml antibody
[5] = molecular target: T1, cynomolgus monkey mGluR5 extracellular domain (monkey-mGluR5-ECD) (cynomolgus monkey, UniProt P41594 21-580 (human entry), limits assumed); assay: HTRF, soluble ECD
T1 construct: ECD construct made 'in a similar fashion' to the human one; also called cyno-mGluR5
T1 sequence (P41594 other isoform, or with tags, fused parts or gaps limits assumed): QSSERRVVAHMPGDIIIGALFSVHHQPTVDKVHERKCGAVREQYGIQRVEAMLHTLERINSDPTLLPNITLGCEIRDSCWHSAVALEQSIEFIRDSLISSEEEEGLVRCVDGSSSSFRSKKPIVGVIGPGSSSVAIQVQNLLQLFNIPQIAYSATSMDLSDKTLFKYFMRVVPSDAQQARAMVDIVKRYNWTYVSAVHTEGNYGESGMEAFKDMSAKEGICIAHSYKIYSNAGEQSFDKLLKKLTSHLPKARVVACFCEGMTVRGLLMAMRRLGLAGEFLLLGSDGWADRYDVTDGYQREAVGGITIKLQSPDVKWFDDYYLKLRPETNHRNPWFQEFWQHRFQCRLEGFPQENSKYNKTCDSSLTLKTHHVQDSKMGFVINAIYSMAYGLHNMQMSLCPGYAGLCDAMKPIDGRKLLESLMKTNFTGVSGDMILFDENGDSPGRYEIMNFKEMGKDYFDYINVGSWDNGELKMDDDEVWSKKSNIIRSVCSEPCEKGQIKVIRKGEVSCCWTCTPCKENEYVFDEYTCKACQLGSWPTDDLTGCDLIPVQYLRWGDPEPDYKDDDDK
Description: (§1) Binding of antibodies to mGluR5/mGluRJ measured via Homogeneous Time-Resolved Fluorescence (HTRF). Binding assays were performed using HTRF reagents from CisBio. Ten microliters of an antibody dilution series (highest final concentration of 30 nM) was incubated with 10 μl of mGluR-ECD (10 nM final concentration) in HTRF buffer (50 mM Phosphate buffer pH7, 0.8M KF (potassium fluoride), 0.2% BSA). Twenty microliters of Europium-labeled anti-hu-Fc donor (2 nM final concentration, CisBio Catalog No. 61HFCKLB) and 20 μl of XL665-labeled anti-Flag acceptor (60 nM final concentration, CisBio Catalog No. 61FG2XLB) were added to each well and incubated for 1 hour at room temperature. Alternatively, the antibody dilution series was incubated with 10 μl of biotinylated mGluR-ECD (10 nM final concentration), and 20 μl of Europium-labeled anti-hu-Fc donor (2 nM final concentration) and 20 μl of d2-labeled streptavidin acceptor (60 nM final concentration, CisBio Catalog No. 610SADLB) were added to each well. Fluorescence was measured at 620 and 665 nm with a delay of 300 μsec. Results were expressed as the ratio of signal at 665 nm over 620 nm. EC₅₀ values were calculated for binding of Ab1-Ab23 to human-mGluR5-ECD, of Ab1-Ab21 to rat-mGluR5-ECD, and of Ab1, Ab2 and Ab4-Ab12 to monkey-mGluR5-ECD and to human-mGluR1-ECD (TABLE 1).

[6] = molecular target: T2, rat mGluR5 extracellular domain (rat-mGluR5-ECD) (rat, UniProt P31424 21-504); assay: HTRF, soluble ECD
T2 construct: ECD construct made 'in a similar fashion' to the human one
T2 sequence (P31424 other isoform, or with tags, fused parts or gaps limits assumed, form in doubt): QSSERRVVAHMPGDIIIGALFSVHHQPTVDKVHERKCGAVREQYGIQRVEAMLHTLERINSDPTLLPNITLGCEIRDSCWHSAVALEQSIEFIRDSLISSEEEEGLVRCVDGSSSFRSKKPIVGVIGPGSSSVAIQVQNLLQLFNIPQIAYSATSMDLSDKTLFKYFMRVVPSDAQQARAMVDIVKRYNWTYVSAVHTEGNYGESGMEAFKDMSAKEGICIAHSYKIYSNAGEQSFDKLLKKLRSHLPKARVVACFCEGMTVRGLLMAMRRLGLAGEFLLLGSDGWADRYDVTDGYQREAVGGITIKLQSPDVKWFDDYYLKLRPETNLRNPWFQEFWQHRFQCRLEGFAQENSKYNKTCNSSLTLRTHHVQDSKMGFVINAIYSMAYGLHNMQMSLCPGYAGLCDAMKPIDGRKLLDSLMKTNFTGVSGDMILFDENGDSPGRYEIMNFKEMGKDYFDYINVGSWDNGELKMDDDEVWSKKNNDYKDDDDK
Description: as §1

[7] = molecular target: T3, human mGluR1 extracellular domain (human-mGluR1-ECD) (human, UniProt Q13255 19-592, limits assumed); assay: HTRF, soluble ECD
T3 construct: ECD construct made 'in a similar fashion' to the human mGluR5 one; also called hu-mGluR1
T3 sequence (Q13255 other isoform, or with tags, fused parts or gaps limits assumed): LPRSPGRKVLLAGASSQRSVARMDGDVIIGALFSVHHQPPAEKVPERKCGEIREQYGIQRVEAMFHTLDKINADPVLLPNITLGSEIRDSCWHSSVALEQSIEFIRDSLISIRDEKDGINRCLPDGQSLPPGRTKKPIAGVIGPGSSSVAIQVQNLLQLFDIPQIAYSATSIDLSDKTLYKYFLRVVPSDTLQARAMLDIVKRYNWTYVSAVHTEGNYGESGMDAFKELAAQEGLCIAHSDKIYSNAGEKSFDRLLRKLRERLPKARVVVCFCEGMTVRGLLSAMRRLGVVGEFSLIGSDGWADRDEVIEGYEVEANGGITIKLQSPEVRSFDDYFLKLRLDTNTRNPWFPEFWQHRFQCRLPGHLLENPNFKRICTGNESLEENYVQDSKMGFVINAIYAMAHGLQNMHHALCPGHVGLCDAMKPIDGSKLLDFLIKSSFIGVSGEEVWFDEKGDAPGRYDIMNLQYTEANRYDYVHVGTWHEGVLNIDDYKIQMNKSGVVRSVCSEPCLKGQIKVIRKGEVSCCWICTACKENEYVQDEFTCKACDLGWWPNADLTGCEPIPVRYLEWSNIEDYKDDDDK
Description: as §1

[8] = molecular target: human mGluR5 extracellular domain (human-mGluR5-ECD) (human) (UniProt P41594); assay: AlphaLISA, biotinylated ECD
[9] = molecular target: human mGluR5 extracellular domain (human-mGluR5-ECD) (human) (UniProt P41594); assay: AlphaLISA, biotinylated ECD; remark: listed apart in the source

Chain of human mGluR5 extracellular domain (human-mGluR5-ECD) (human) (P41594 other isoform, or with tags, fused parts or gaps): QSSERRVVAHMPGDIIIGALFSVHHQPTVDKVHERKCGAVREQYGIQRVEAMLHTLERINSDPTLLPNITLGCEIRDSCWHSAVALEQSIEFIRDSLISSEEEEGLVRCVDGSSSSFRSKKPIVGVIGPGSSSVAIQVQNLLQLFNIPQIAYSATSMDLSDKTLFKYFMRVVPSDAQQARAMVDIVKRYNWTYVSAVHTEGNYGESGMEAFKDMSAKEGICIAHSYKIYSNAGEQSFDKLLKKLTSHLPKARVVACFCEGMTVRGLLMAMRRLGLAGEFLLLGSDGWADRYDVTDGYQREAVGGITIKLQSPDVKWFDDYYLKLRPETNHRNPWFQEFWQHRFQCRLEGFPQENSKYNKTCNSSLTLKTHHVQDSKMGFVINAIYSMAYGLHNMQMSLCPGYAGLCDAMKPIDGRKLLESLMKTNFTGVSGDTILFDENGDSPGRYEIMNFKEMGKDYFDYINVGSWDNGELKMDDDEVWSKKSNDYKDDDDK

Row | Binder | EC50 [1] [nM] | EC50 [2] [nM] | pERK Assay Inhibition IC50-nM [3] [nM] | mGluR5 (FL) cell binding-fold over background [4] [fold] | EC50 [5] [nM] | EC50 [6] [nM] | binding result [7] | EC50 [8] [nM] | EC50 [9] [nM]
1 | mGluR5 Ab9 (antibody, V domains shown, Rabbit variable regions on human heavy and light chain constant regions (chimeric)) VH: QSVEESGGRLVTPGTPLTLTCTVSGFSLNNYAMNWIRQAPGKGLEWIGIIYGSGSTYYASWAKGRFTASKTSTTVDLKMTSLTTEDTATYFCARDELAAGINYFTLWGQGTLVTVSS VL: ALVMTQTPASVEVAVGGTVTIKCQASQNIIDWCSWYQQKLGQPPKLLIYEASKLASGVPSRFKGSGSGTQFTLTISGVECADAATYYCQQGYSPSGVDNVFGGGTEVVVKR | 0.998 | < 2 | 2.97 | 28.4 | 0.398 | 0.519 | no binding | – | –
2 | mGluR5 Ab11 (antibody, V domains shown, Rabbit variable regions on human heavy and light chain constant regions (chimeric)) VH: QSLEESGGGLVKPGGTLTLTCTASGFSFSSSYWICWVRQAPGKGLEWIGCIYGSTDAYNANWAKGRFAISQTSSTTVTLQMTSLPAADTATYFCARHDGDIGWTLDLWGPGTLVTVSS VL: AYDMTQTPASVEVAVGGTVTIKCQASLTIGTRLAWYQQKPGQPPKLLIYKASTLASGVSSRFKGSGSGTQFALTISDLECADAATYYCQQAAYVTDIDNAFGGGTEVVVKR | 0.545 | < 2 | 0.14 | 37 | 0.255 | 0.423 | no binding | – | –
3 | mGluR5 Ab2 (antibody, V domains shown, Rabbit variable regions on human heavy and light chain constant regions (chimeric)) VH: QQQLEESGGGLVKPGGTLTLTCKASGIDFSGYYYMCWVRQAPGKGLEWIACVYTGDGGTYYASWAKGRFTISKTSSTTVTLQMTSLTAADTATYFCARGSGVGSYGYNLWGQGTLVTVSS VL: DIVMTQTPASVEAAVGGTVTIKCQASESIYSNLAWYQQKPGQPPKLLIYRASNLESGVPSRFKGSGSGTEFTLTISDLECADAATYYCQGYYAITTTNAFGGGTEVVVKR | 0.341 | < 2 | 0.16 | 40.3 | 0.36 | 0.476 | no binding | – | –
4 | mGluR5 Ab24 (antibody, V domains shown) VH: QQQLEESGGGLVKPGGTLTLTCKASGIDFSNVYYMCWVRQAPGKGPEWIACIYVGDGSTYDASWARGRFTISKTSSTTVTLQMISLTAADTATYFCAGGTGVGSYGYSLWGPGTLVTVSS VL: DIVMTQTPASVEAAVGGTVTIKCQASESIYSNLAWYHQKPGQPPKLLIYRASNLESGVPSRFKGSGSGTDFTLTISDLECADAATYYCQGYYASVVTNGFGGGTEVVVKR | – | – | 0.1 | 37.2 | – | – | – | < 2 | 0.0947
5 | mGluR5 Ab6 (antibody, V domains shown, Rabbit variable regions on human heavy and light chain constant regions (chimeric)) VH: QSLEESGGRLVTPGGTLTLTCTVSGIDLSSYAMSWVRQAPGKGLEWIGIIYASGNTWYANWVKGRFTISKTSTTVDLKMTSPTTEDTATYFCARDSSATFNYLDLWGQGTLVTVSS VL: AFHMTQTPASMEVAVGGTVTMKCQASESIDTYLNWYQQKPGQPPKLLIYQASKLASGVPSRFKGSGSGTEFTLTISGVECADAATYYCQQGWSTNDVDNVFGGGTEVVVKR | 0.415 | < 2 | 4.29 | 24.4 | 0.424 | 0.771 | no binding | – | –
6 | mGluR5 Ab10 (antibody, V domains shown, Rabbit variable regions on human heavy and light chain constant regions (chimeric)) VH: QSLEESGGRLVTPGTPLTLTCTVSGIDLSSYAVGWVRQAPGKGLEYIGIIYASGNTWYASWVKGRFTISKTSTTVDLKMTSLTTEDTATYFCARGHGATYDYFNLWGPGTLVTVSS VL: AYDMTQTPASVEVAVGGTVTIKCQASQSISSWLAWYQQKPGQPPKLLIYDASDLASGVPSRFKGSGSGTEYTLTISGVQCDDAATYYCQQGLATANVDNVFGGGTEVVVKR | 0.409 | < 2 | 1.07 | 27.9 | 0.339 | 0.848 | no binding | – | –
7 | mGluR5 Ab5 (antibody, V domains shown, Rabbit variable regions on human heavy and light chain constant regions (chimeric)) VH: QEQLVESGGGLVQPEGSLTLTCTASGIDFSSGYFMCWVRQAPGKGLEWIACISPYSDNTWYANWAKGRFTISKTSSTTVTLQMTSLTAADTAAYRCARTMAIGAYNPFKLWGQGTLVTVSS VL: ALVMTQTPSSVSAAVGGTVTINCQASQNIYSNLAWYQQKPGQRPKLLIYDASDLASGVSSRVKGSGSGTEFTLTISDLECADAATYYCQGYYSGNAFGGGTEVVVKR | 0.54 | < 2 | 1.51 | 36.3 | 0.31 | 0.311 | no binding | – | –
8 | mGluR5 Ab7 (antibody, V domains shown, Rabbit variable regions on human heavy and light chain constant regions (chimeric)) VH: QSVEESGGRLVTPGTPLTLTCTVSGFSLSRYAMGWVRHVPGKGLEWIGIIYASGSTYYASWAKGRFTISKTSTTVDLKITSPTTEDTATYFCARSRTATYDAVDPWGPGTLVTVSS VL: AYDMTQTPASVSEPVGGTVTIKCQASQSISSYLSWYQQKPGQPPKLLIYEASTLASGVSSRFKGSGSGTEYTLTISDLECDDAAAYYCQQDLSGSNLDNSFGGGTEVVVKR | 1.02 | < 2 | 1.34 | 28.9 | 0.37 | 0.63 | no binding | – | –
9 | mGluR5 Ab12 (antibody, V domains shown, Rabbit variable regions on human heavy and light chain constant regions (chimeric)) VH: QSVEESGGRLVTPGTPLTLTCTVSGIDLSSNAMGWVRQAPGKGLEWIGIIYASGNAWYANWVKGRFTISKTSTTVDLKITSPTTEDTATYFCARDATATWDYFNLWGQGTLVTVSS VL: AYDMTQTPSSVSAAVGGTVTIKCQASQSISNWLSWYQQKPGQPPKLLIYRASTLASGVSSRFSGSGSGTEFTLTISDLECADAATYYCQQGYSVANVDNAFGGGTEVVVKR | 0.775 | < 2 | 3.73 | 31.9 | 0.359 | 0.991 | no binding | – | –

Continued, values first:

Row | EC50 [1] [nM] | EC50 [2] [nM] | pERK Assay Inhibition IC50-nM [3] [nM] | mGluR5 (FL) cell binding-fold over background [4] [fold] | EC50 [5] [nM] | EC50 [6] [nM] | binding result [7] | EC50 [8] [nM] | EC50 [9] [nM] | Binder
10 | – | – | 0.11 | 37.9 | – | – | – | < 2 | 0.0915 | mGluR5 Ab25 (antibody, V domains shown) VH: QRQLEESGGGLVKPGGALTLTCKASGIDFSSYYYRCWVRQAPGKGLEWIACIYTGDGTTYYASWAKGRFTTSKTSSTTVTLQMTSLTAADTATYFCARGSGVGSYGYNFWGPGTLVTVSS VL: DIVMTQTPASVEAAVGGTVTIKCQASESIYSNLAWYQQKPGQPPKLLIYRASTLESGVPSRFKGSGSGTEFTLTISDLECADAATYYCQGYYASIITNAFGGGTEVVVKR
11 | – | – | 0.11 | 38.9 | – | – | – | < 2 | 0.0918 | mGluR5 Ab28 (antibody, V domains shown) VH: QQQLEESGGGLVKPGGTLTLTCKGSGIDFNDYYYMCWVRQAPGKGLEWIACIYNGDGETYYANWAKGRFTISKTSSTTVTLQMTSLTAADTATYFCARGSGVGSYGYNFWGPGTLVTVSS VL: DIVMTQTPASVEAAVGGTVTIKCQASESIYSNLAWYQQKPGQPPKLLIYRASNLASGVPSRFKGSGSGTEFTLTISDLECADAATYYCQGYYASTVTNAFGGGTEVVVKR
12 | – | – | 0.1 | 39.4 | – | – | – | < 2 | 0.101 | mGluR5 Ab26 (antibody, V domains shown) VH: QSVEESGGGLVKPEGSLTLTCKASGFDLSSYYYMCWVRQAPGKGPEWIACIYAGDGTTYYASWAKGRFTISKTSSTTVTLQMTSLTAADTATYFCARGTGVGSYGYNLWGPGTLVTVSS VL: DIVMTQTPASVEAAVGGTVTIKCQASENIYSNLAWYQQKPGQPPKLLIYRASNLESGVPSRFKGSGSGTEFTLTISDLECDDAATYYCQGYYPSAVTNAFGGGTEVVVKR
13 | – | – | 0.06 | 37.8 | – | – | – | < 2 | 0.0772 | mGluR5 Ab27 (antibody, V domains shown) VH: QSVEESGGGLVKPGGTLTLTCKASGIDFSSYHYMCWVRQAPGKGLEWIACIYNGDGDTYYASWAKGRFTISKTSSTTVTLQMTSLTAADTATYFCARGSGVGSYGYNLWGPGTLVTVSS VL: DIVMTQTPASVEAAVGGTVTIKCQASESIYSNLAWYQQKPGQPPKLLIYRASNLESGVPSRFKGSGSGTEFTLTISDLECADAATYYCQGYYASTTTNAFGGGTEVVVKR
